Data reported in paper PMC12051055, “Spectroscopy and crystallography define carotenoid oxygenases as a new subclass of mononuclear non-heme Fe^II enzymes” (The Journal of Biological Chemistry, 2025).

Legend:
[1] = system: Oc1cc(O)cc(/C=C/c2ccc(O)c(O)c2)c1; test: X-ray crystal structure of complex, MCD; the value is the apparent Km from steady-state kinetics; assay type: biochemical, Neurospora crassa; conditions: Fe(II) active site
[2] = system: CC=Cc1ccc(O)c(OC)c1; test: steady-state kinetics of cleavage to vanillin by purified enzyme (apparent Km); assay type: biochemical, Neurospora crassa; conditions: Fe(II)
[3] = β-ring rotated ~[…]° away from the Val151 side chain
[4] = ~[…]° rotation of the β-ring toward the vacancy left from the absent Thr side chain

| Substance | Km ([1]; β-ring rotated away from the Val151 side chain) [µM] | kcat [1, 3] [s⁻¹] | kcat/Km [1, 3] [M⁻¹ s⁻¹] | Km [2] [µM] | Km ([1]; rotation of the β-ring toward the vacancy left from the absent Thr side chain) [µM] | kcat [1, 4] [s⁻¹] | kcat/Km [1, 4] [M⁻¹ s⁻¹] |
| --- | --- | --- | --- | --- | --- | --- | --- |
| CAO1 (Neurospora crassa carotenoid oxygenase 1) (Neurospora crassa OR74A; T151V) | 0.027 ± 0.003 | 1.04 ± 0.024 | 3.87e+07 ± 4.42e+06 | 93.92 ± 12.27 |  |  |  |
| CAO1 (Neurospora crassa carotenoid oxygenase 1) (Neurospora crassa OR74A; T151G) |  |  |  |  | 0.110 ± 0.013 | 0.089 ± 0.003 | 810000 ± 100000 |
